Test results published in publication PMC11241748, “DNA Repair Protein XRCC1 Stimulates Activity of DNA Polymerase λ under Conditions of Microphase Separation”.

Molecular target: XRCC1 (UniProt P18887 1-633)
Assay: DLS (DNA-induced higher-order assembly); elevated DNA concentration; Rh ~135 to ~740 nm vs 6.7 nm without DNA; DLS and microscopy buffer not given in the material; activity assay: 50 mM Tris-HCl pH 7.5, 5 mM Mg2+, 0.5 mM DTT, 0.25 mg/mL BSA, 37 °C. Kd values in Table 1 a
Settings: protein: recombinant; tags: His-tag; chain copies: 2; label: 5'-32P on upstream strand as printed; 1-nt gap (template G) between strands 1 and 2, both paired to strand 3; blunt outer ends

B1: gap-DNA (dsDNA)
DNA 1: GGCGATTAAGTTGGG
DNA 2: AACGTCAGGGTCTTCC
DNA 3: GGAAGACCCTGACGTTGCCCAACTTAATCGCC
modifications: 5'-phosphate on downstream strand (5' margin of gap)
binding result: binds
